Test results: PMC8602628, “Phosphorylation activates the yeast small heat shock protein Hsp26 by weakening domain contacts in the oligomer ensemble” (Nature Communications, 2021)

T1: authentic Hsp26 from yeast (S. cerevisiae), P15992
T1 chain: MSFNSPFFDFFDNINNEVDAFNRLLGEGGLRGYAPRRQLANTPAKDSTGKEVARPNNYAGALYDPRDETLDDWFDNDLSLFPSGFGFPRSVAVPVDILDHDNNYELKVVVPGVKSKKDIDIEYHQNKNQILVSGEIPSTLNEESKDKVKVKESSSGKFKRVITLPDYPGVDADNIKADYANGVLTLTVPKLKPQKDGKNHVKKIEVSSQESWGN


Columns and labels:
[1] = biological target: the molecule itself; experiment: CD thermal transition; far-UV CD at 218 nm, 12.5 µM protein in PBS, 20 to 90 °C at 1 K/min; the lower transition is taken as the disassembly of the oligomer
[2] = biological target: the molecule itself; experiment: cryo-EM structure; 2.0-3.3 mg/ml protein plunge-frozen, Titan Krios 300 kV, K2; 2D class averages (IMAGIC) compared with 40mer reprojections, 3D reconstruction in cryoSPARC
[3] = biological target: Hsp26 FRET complex (5 µM LYI-labeled and 5 µM AIAS-labeled Hsp26 S5C, pre-formed at 40 °C) (S. cerevisiae) (UniProt P15992); experiment: FRET or BRET; subunit exchange: unlabeled Hsp26 in 39-fold molar excess added to the pre-formed FRET complex, 40 °C, decrease of acceptor fluorescence at 520 nm for 1500 s, exponential fit, kexchange = 1/t1
[4] = biological target: the molecule itself; experiment: cryo-EM structure; S207E dataset; asymmetric heterogeneous refinement (3D classification) in cryoSPARC into 13 classes; class C13
[5] = biological target: the molecule itself; experiment: AUC; sedimentation velocity, 23 µM protein, 35,000 rpm (98,500 × g), 20 °C, PBS, absorbance at 280 nm, c(S) distribution in SEDFIT
[6] = biological target: the molecule itself; experiment: SEC; analytical SEC-HPLC, Superdex200 increase 10/300GL, PBS, 0.5 ml/min, RT, 20 µl of a 20 µM protein solution loaded
[7] = biological target: T1, authentic Hsp26 from yeast (S. …); experiment: cryo-EM structure; 2.0-3.3 mg/ml protein plunge-frozen, Titan Krios 300 kV, K2; 2D class averages (IMAGIC) compared with 40mer reprojections, 3D reconstruction in cryoSPARC; conditions: remark: other sources report otherwise

Binder	dissociation temperature of the oligomer [1]	exchange constant [3]	further results
Hsp26 wild-type (WT) protein, recombinant (natural protein, S. cerevisiae, Hsp26, small heat shock protein of S. cerevisiae; HSP26 cloned into pQE60 with NcoI and HindIII, which adds a glycine after the start methionine; Forms an ensemble of oligomers, predominantly a 40mer; also called Hsp26 WT; source: E. coli HB101, purified (Q-Sepharose, Superdex200, Resource Q)) MGSFNSPFFDFFDNINNEVDAFNRLLGEGGLRGYAPRRQLANTPAKDSTGKEVARPNNYAGALYDPRDETLDDWFDNDLSLFPSGFGFPRSVAVPVDILDHDNNYELKVVVPGVKSKKDIDIEYHQNKNQILVSGEIPSTLNEESKDKVKVKESSSGKFKRVITLPDYPGVDADNIKADYANGVLTLTVPKLKPQKDGKNHVKKIEVSSQESWGN	42.1 °C	0.0032 s⁻¹	fraction of particles representing 40mer views [2]: 48.9%; stoichiometry N [2]: 40
Hsp26 T48E (natural protein, S. cerevisiae, Hsp26 of S. cerevisiae, phospho-mimetic mutant in pQE60::HSP26; source: E. coli HB101, purified (Q-Sepharose, Superdex200, Resource Q)) MGSFNSPFFDFFDNINNEVDAFNRLLGEGGLRGYAPRRQLANTPAKDSEGKEVARPNNYAGALYDPRDETLDDWFDNDLSLFPSGFGFPRSVAVPVDILDHDNNYELKVVVPGVKSKKDIDIEYHQNKNQILVSGEIPSTLNEESKDKVKVKESSSGKFKRVITLPDYPGVDADNIKADYANGVLTLTVPKLKPQKDGKNHVKKIEVSSQESWGN	< 40 °C		
Hsp26 S207E (natural protein, S. cerevisiae, UniProt P15992 1-214, looked up, an additional glycine stands after the start methionine; phospho-mimetic mutant of the C-terminal region; predominant species a 40mer, one 3D class a 42mer; source: E. coli HB101, purified (Q-Sepharose, Superdex200, Resource Q)) MGSFNSPFFDFFDNINNEVDAFNRLLGEGGLRGYAPRRQLANTPAKDSTGKEVARPNNYAGALYDPRDETLDDWFDNDLSLFPSGFGFPRSVAVPVDILDHDNNYELKVVVPGVKSKKDIDIEYHQNKNQILVSGEIPSTLNEESKDKVKVKESSSGKFKRVITLPDYPGVDADNIKADYANGVLTLTVPKLKPQKDGKNHVKKIEVESQESWGN			stoichiometry N [4]: 42
Hsp26 S47E (natural protein, S. cerevisiae, Hsp26 of S. cerevisiae, phospho-mimetic mutant in pQE60::HSP26; source: E. coli HB101, purified (Q-Sepharose, Superdex200, Resource Q)) MGSFNSPFFDFFDNINNEVDAFNRLLGEGGLRGYAPRRQLANTPAKDETGKEVARPNNYAGALYDPRDETLDDWFDNDLSLFPSGFGFPRSVAVPVDILDHDNNYELKVVVPGVKSKKDIDIEYHQNKNQILVSGEIPSTLNEESKDKVKVKESSSGKFKRVITLPDYPGVDADNIKADYANGVLTLTVPKLKPQKDGKNHVKKIEVSSQESWGN			binding result [5]: binds
Hsp26 T42E (natural protein, S. cerevisiae, Hsp26 of S. cerevisiae, phospho-mimetic mutant in pQE60::HSP26; source: E. coli HB101, purified (Q-Sepharose, Superdex200, Resource Q)) MGSFNSPFFDFFDNINNEVDAFNRLLGEGGLRGYAPRRQLANEPAKDSTGKEVARPNNYAGALYDPRDETLDDWFDNDLSLFPSGFGFPRSVAVPVDILDHDNNYELKVVVPGVKSKKDIDIEYHQNKNQILVSGEIPSTLNEESKDKVKVKESSSGKFKRVITLPDYPGVDADNIKADYANGVLTLTVPKLKPQKDGKNHVKKIEVSSQESWGN	< 40 °C		
Hsp26 S90E (natural protein, S. cerevisiae, Hsp26 of S. cerevisiae, phospho-mimetic mutant in pQE60::HSP26; source: E. coli HB101, purified (Q-Sepharose, Superdex200, Resource Q)) MGSFNSPFFDFFDNINNEVDAFNRLLGEGGLRGYAPRRQLANTPAKDSTGKEVARPNNYAGALYDPRDETLDDWFDNDLSLFPSGFGFPREVAVPVDILDHDNNYELKVVVPGVKSKKDIDIEYHQNKNQILVSGEIPSTLNEESKDKVKVKESSSGKFKRVITLPDYPGVDADNIKADYANGVLTLTVPKLKPQKDGKNHVKKIEVSSQESWGN	< 40 °C	0.004 s⁻¹	
Hsp26 S47E/T48E (natural protein, S. cerevisiae, Hsp26 of S. cerevisiae, phospho-mimetic double mutant in pQE60::HSP26; source: E. coli HB101, purified (Q-Sepharose, Superdex200, Resource Q)) MGSFNSPFFDFFDNINNEVDAFNRLLGEGGLRGYAPRRQLANTPAKDEEGKEVARPNNYAGALYDPRDETLDDWFDNDLSLFPSGFGFPRSVAVPVDILDHDNNYELKVVVPGVKSKKDIDIEYHQNKNQILVSGEIPSTLNEESKDKVKVKESSSGKFKRVITLPDYPGVDADNIKADYANGVLTLTVPKLKPQKDGKNHVKKIEVSSQESWGN	36.8 °C	0.004 s⁻¹	fraction of particles representing 40mer views [2]: 7.3%; stoichiometry N [2]: 40
Hsp26 S208E (natural protein, S. cerevisiae, Hsp26 of S. cerevisiae, phospho-mimetic mutant in pQE60::HSP26; source: E. coli HB101, purified (Q-Sepharose, Superdex200, Resource Q)) MGSFNSPFFDFFDNINNEVDAFNRLLGEGGLRGYAPRRQLANTPAKDSTGKEVARPNNYAGALYDPRDETLDDWFDNDLSLFPSGFGFPRSVAVPVDILDHDNNYELKVVVPGVKSKKDIDIEYHQNKNQILVSGEIPSTLNEESKDKVKVKESSSGKFKRVITLPDYPGVDADNIKADYANGVLTLTVPKLKPQKDGKNHVKKIEVSEQESWGN	< 40 °C		
Hsp26 S207E (natural protein, S. cerevisiae, Hsp26 of S. cerevisiae, phospho-mimetic mutant in pQE60::HSP26; source: E. coli HB101, purified (Q-Sepharose, Superdex200, Resource Q)) MGSFNSPFFDFFDNINNEVDAFNRLLGEGGLRGYAPRRQLANTPAKDSTGKEVARPNNYAGALYDPRDETLDDWFDNDLSLFPSGFGFPRSVAVPVDILDHDNNYELKVVVPGVKSKKDIDIEYHQNKNQILVSGEIPSTLNEESKDKVKVKESSSGKFKRVITLPDYPGVDADNIKADYANGVLTLTVPKLKPQKDGKNHVKKIEVESQESWGN			fraction of particles representing 40mer views [2]: 34.2%; stoichiometry N [2]: 40
Hsp26 S208E/S211E (natural protein, S. cerevisiae, Hsp26 of S. cerevisiae, phospho-mimetic double mutant in pQE60::HSP26; also called CTR double mutant; source: E. coli HB101, purified (Q-Sepharose, Superdex200, Resource Q)) MGSFNSPFFDFFDNINNEVDAFNRLLGEGGLRGYAPRRQLANTPAKDSTGKEVARPNNYAGALYDPRDETLDDWFDNDLSLFPSGFGFPRSVAVPVDILDHDNNYELKVVVPGVKSKKDIDIEYHQNKNQILVSGEIPSTLNEESKDKVKVKESSSGKFKRVITLPDYPGVDADNIKADYANGVLTLTVPKLKPQKDGKNHVKKIEVSEQEEWGN	< 40 °C	0.0036 s⁻¹	
Hsp26 T163E (natural protein, S. cerevisiae, Hsp26 of S. cerevisiae, phospho-mimetic mutant in pQE60::HSP26; source: E. coli HB101, purified (Q-Sepharose, Superdex200, Resource Q)) MGSFNSPFFDFFDNINNEVDAFNRLLGEGGLRGYAPRRQLANTPAKDSTGKEVARPNNYAGALYDPRDETLDDWFDNDLSLFPSGFGFPRSVAVPVDILDHDNNYELKVVVPGVKSKKDIDIEYHQNKNQILVSGEIPSTLNEESKDKVKVKESSSGKFKRVIELPDYPGVDADNIKADYANGVLTLTVPKLKPQKDGKNHVKKIEVSSQESWGN	34.6 ± 0.9 °C	0.0036 s⁻¹	
Hsp26 S211E (natural protein, S. cerevisiae, Hsp26 of S. cerevisiae, phospho-mimetic mutant in pQE60::HSP26; source: E. coli HB101, purified (Q-Sepharose, Superdex200, Resource Q)) MGSFNSPFFDFFDNINNEVDAFNRLLGEGGLRGYAPRRQLANTPAKDSTGKEVARPNNYAGALYDPRDETLDDWFDNDLSLFPSGFGFPRSVAVPVDILDHDNNYELKVVVPGVKSKKDIDIEYHQNKNQILVSGEIPSTLNEESKDKVKVKESSSGKFKRVITLPDYPGVDADNIKADYANGVLTLTVPKLKPQKDGKNHVKKIEVSSQEEWGN			binding result [6]: binds
Hsp26 S144E (natural protein, S. cerevisiae, Hsp26 of S. cerevisiae, phospho-mimetic mutant in pQE60::HSP26; source: E. coli HB101, purified (Q-Sepharose, Superdex200, Resource Q)) MGSFNSPFFDFFDNINNEVDAFNRLLGEGGLRGYAPRRQLANTPAKDSTGKEVARPNNYAGALYDPRDETLDDWFDNDLSLFPSGFGFPRSVAVPVDILDHDNNYELKVVVPGVKSKKDIDIEYHQNKNQILVSGEIPSTLNEEEKDKVKVKESSSGKFKRVITLPDYPGVDADNIKADYANGVLTLTVPKLKPQKDGKNHVKKIEVSSQESWGN	35.1 ± 0.1 °C	0.0032 s⁻¹	
authentic Hsp26 from yeast, P15992 1-214 (natural protein) MSFNSPFFDFFDNINNEVDAFNRLLGEGGLRGYAPRRQLANTPAKDSTGKEVARPNNYAGALYDPRDETLDDWFDNDLSLFPSGFGFPRSVAVPVDILDHDNNYELKVVVPGVKSKKDIDIEYHQNKNQILVSGEIPSTLNEESKDKVKVKESSSGKFKRVITLPDYPGVDADNIKADYANGVLTLTVPKLKPQKDGKNHVKKIEVSSQESWGN			stoichiometry N [7]: 40
